Assay results reported in patent US20230406950A1 (LYVGEN BIOPHARMA, published 2023).
Each block holds one binder with its values, some of them ahead of it.

What was measured:
[1] = target: T1, human GITR expressed on cells (human, UniProt Q9Y5U5 26-241); test: flow cytometry (FACS), MFI, CHO cells expressing human GITR
T1 construct: whole, on cells; also called TNFRSF18; CD357
T1 sequence (looked up): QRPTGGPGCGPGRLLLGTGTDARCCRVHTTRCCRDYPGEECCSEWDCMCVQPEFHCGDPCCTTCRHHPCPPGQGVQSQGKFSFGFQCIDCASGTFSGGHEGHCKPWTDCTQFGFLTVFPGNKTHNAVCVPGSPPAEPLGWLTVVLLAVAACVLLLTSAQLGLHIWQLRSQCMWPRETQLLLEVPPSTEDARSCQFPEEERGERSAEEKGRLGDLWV
Procedure: FACS analysis was performed to evaluate the binding properties of exemplary anti-GITR humanized antibodies. Briefly, CHO cells over-expressing human GITR were harvested using trypsin-EDTA partial digestion followed by centrifugation at 1000 g for 3 minutes. The cells were re-suspended in cold PBS-BSA (2%) at 2×10⁶/mL and aliquoted to 100 μL/tube. The anti-GITR humanized antibodies were diluted in PBS-BSA (final concentrations were 0.01, 0.1, 1 and 10 μg/mL) and 50 μL of each was added to the CHO-GITR cells. The cell solutions were mixed and incubated at 4° C. in the dark for 2 hours. The cells were then washed with PBS-BSA twice. Secondary antibody conjugates (goat F(ab′)2 anti-human IgG—Fc (PE), pre-adsorbed, Abcam #ab98596) at 1/500 dilution and 100 μL/well was added and the cells were mixed and incubated 4° C. in dark for 1 hour. The cells were then washed twice with PBS-BSA, followed by fixation in 2% PFA/PBS, and were then subjected to FACS analysis.
[0270] (b) Agonistic Activity for GITR

[2] = target: T2, human CD137 expressed on cells (human, UniProt Q07011 24-255); test: flow cytometry (FACS), MFI, CHO cells expressing human CD137
T2 construct: whole, on cells; also called 4-1BB; TNFRSF9
Procedure: (§1) Exemplary anti-PD-1/CD137 bi-specific antibodies were analyzed by FACS for their binding properties to human PD-1 and/or human CD137 expressed on CHO cells. Briefly, cultured cells were harvested, counted and cell viability was evaluated using the Trypan Blue exclusion method. Viable cells were then adjusted to 2×10⁶ cells per mL in PBS containing 2% BSA. 100 μL of this cell suspension were further aliquoted per well into a V-bottom 96-well plate. […] After incubation for 2 hours at 4° C., cells were centrifuged (3 min, 1000× g), washed with 250 μL/well BSA-containing FACS Stain Buffer, resuspended and incubated for an additional 1 hour at 4° C. with 100 μL/well fluorochrome-conjugated anti-IgG antibody for detection of the bisepecific antibody. Cells were then washed with 250 μL/well BSA-containing FACS Stain Buffer, resuspended in 100 μL/well FACS Stain Buffer, acquired and analyzed using a FACS machine. Binding of the bispecific antibodies to human PD-1 or human CD137 expressing CHO cells were evaluated and the mean fluorescence intensity is plotted in histograms or dot plots.
(§2) Exemplary anti-PD-L1/CD137 bi-specific antibodies were analyzed by FACS for their binding properties to human PD-L1 or human CD137 expressed on CHO cells, following the procedures disclosed in Examples 1 above.

[3] = target: T3, human PD-L1 expressed on cells (human, UniProt Q9NZQ7 19-290); test: flow cytometry (FACS), MFI, CHO cells expressing human PD-L1
T3 construct: whole, on cells; also called human PD-L1 expressed on CHO cells; Raji-PD-L1 cells
Procedure: as §1, §2

[4] = target: T2, human CD137 expressed on cells; test: flow cytometry (FACS), MFI, CHO cells expressing human CD137; remark: listed apart in the source
Summary of the method: (§3)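 Viable CHO cells, 2×10⁶ cells/mL in PBS with 2% BSA, incubated with bispecific antibodies for 2 h at 4° C. Bound antibody detected with fluorochrome-conjugated anti-IgG, 1 h at 4° C. Read-out is mean fluorescence intensity by flow cytometry.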

[5] = target: T2, human CD137 expressed on cells; test: FACS on CHO cells expressing human CD137 (MFI)
Procedure: as §1, with “Anti-OX40/CD137” for “Exemplary anti-PD-1/CD137”, “OX40” for “PD-1”, “1000×g),” for “1000× g),”

[6] = target: T2, human CD137 expressed on cells; test: FACS on CHO cells expressing human CD137 (MFI); remark: listed apart in the source
Procedure: as §1, with “Anti-GITR/CD137” for “Exemplary anti-PD-1/CD137”, “GITR” for “PD-1”

[7] = target: T2, human CD137 expressed on cells; test: FACS on CHO cells expressing human CD137 (MFI); remark: listed apart in the source
Procedure: as §1, with “Anti-OX40/CD137” for “Exemplary anti-PD-1/CD137”, “OX40” for “PD-1”, “1000×g),” for “1000× g),”

[8] = target: T2, human CD137 expressed on cells; test: FACS on CHO cells expressing human CD137 (MFI); remark: listed apart in the source
Procedure: as §1, with “Anti-CD40/CD137” for “Exemplary anti-PD-1/CD137”, “CD40” for “PD-1”, “1000×g),” for “1000× g),”

[9] = target: T2, human CD137 expressed on cells; test: FACS on CHO cells expressing human CD137 (MFI); remark: listed apart in the source
Procedure: as §1, with “Anti-CD40/CD137” for “Exemplary anti-PD-1/CD137”, “CD40” for “PD-1”, “1000×g),” for “1000× g),”

[10] = target: T2, human CD137 expressed on cells; test: FACS on CHO cells expressing human CD137 (MFI); remark: listed apart in the source
Procedure: as §1, with “Anti-GITR/CD137” for “Exemplary anti-PD-1/CD137”, “GITR” for “PD-1”

[11] = target: T4, human PD-1 expressed on cells (human, UniProt Q15116 25-288); test: flow cytometry (FACS), MFI, CHO cells expressing human PD-1
T4 construct: whole, on cells; also called human PD-1 over-expressed on the CHO cells; Jurkat/NFkB-Luci/PD-1 cells
Summary of the method: as §3

[12] = target: T5, human CD40 expressed on CHO cells (human, UniProt P25942 21-277); test: FACS on CHO cells expressing human CD40 (MFI)
T5 construct: whole, on cells
T5 sequence (P25942 21-277): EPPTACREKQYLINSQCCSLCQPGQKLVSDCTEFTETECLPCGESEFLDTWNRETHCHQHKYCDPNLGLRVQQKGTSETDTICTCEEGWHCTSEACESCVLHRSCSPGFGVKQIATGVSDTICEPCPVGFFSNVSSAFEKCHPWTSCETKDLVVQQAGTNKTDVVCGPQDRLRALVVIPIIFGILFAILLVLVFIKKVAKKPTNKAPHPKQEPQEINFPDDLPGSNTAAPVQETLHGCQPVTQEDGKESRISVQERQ

T2 sequence (Q07011 24-255): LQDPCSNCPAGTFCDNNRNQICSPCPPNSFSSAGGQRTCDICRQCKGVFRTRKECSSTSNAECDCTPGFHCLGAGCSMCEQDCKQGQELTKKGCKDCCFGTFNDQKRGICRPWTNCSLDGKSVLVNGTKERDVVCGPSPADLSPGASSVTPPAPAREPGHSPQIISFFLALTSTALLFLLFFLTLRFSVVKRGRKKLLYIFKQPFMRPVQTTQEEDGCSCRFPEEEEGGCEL
T3 sequence (Q9NZQ7 19-290): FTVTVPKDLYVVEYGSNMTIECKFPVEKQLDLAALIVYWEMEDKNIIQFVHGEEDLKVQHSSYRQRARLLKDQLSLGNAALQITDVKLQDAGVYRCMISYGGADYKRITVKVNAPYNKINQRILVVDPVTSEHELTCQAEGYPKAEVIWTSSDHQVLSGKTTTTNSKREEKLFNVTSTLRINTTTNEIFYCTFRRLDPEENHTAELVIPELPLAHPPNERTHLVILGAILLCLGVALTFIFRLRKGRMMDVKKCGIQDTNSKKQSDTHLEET
T4 sequence (Q15116 25-288): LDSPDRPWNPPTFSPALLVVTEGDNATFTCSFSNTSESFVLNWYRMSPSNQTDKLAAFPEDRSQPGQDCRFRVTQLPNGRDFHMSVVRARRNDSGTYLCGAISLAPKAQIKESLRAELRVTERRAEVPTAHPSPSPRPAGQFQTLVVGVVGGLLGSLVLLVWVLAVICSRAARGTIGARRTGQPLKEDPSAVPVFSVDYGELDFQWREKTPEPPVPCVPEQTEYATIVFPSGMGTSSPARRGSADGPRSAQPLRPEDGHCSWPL

binding result [1]: binds
B1: TM676 (antibody, human IgG1, kappa, V domains shown)
VH: QVQLQESGPGLVKPSETLSLTCTVSGFSLTSYNVHWIRQPPGKGLEWIGVIWSGVRTDYNSVLKSRVTISVDTSKNQFSLKLSSVTAADTAVYYCARGTYDANYHDVMDAWGQGTMVTVSS
VL: EIVLTQSPATLSLSPGERATLSCRASKSVRTGMHWYQQKPGQAPRLLIYGASNLESGIPARFSGSGSGTDFTLTISSLEPEDFAVYYCHQSWNHFTFGQGTKLEIKR
notes: Humanized anti-GITR antibody; also called humanized LYV392 antibody (VH-1/IgG1 mut, VL-1/kappa)

binding result [2]: no binding (tested: 10 ug/ml) | binding result [3]: binds
B2: Ly076 (antibody, V domains shown)
VH: QVQLVQSGAEVKKPGASVKVSCKASGYTFTDFWMSWVRQAPGQGLEWMGQIYPNTGTTHSNEKFKGRVTMTRDTSTSTVYMELSSLRSEDTAVYYCARSYHISTTPNWFAYWGQGTLVTVSS
VL: DIQMTQSPSSLSASVGDRVTITCKASQNVYKKLEWYQQKPGKVPKVLIYHTNILQTGVPSRFSGSGSGTDYTLTISSLQPEDVATYYCYQWNSGPTFGGGTKVEIK
notes: Humanized anti-PD-L1 parent; also called anti-PD-L1 antibody Ly076

EC50 (read off the curve) [4]: ~0.05 µg/mL | EC50 (read off the curve) [5]: ~90 ng/mL | binding result [3]: no binding (tested: 10 ug/ml) | EC50 (read off the curve) [6]: ~100 ng/mL | EC50 (read off the curve) [7]: ~100 ng/mL | EC50 (read off the curve) [8]: ~0.03 µg/mL | EC50 (read off the curve) [9]: ~0.03 µg/mL | EC50 (read off the curve) [10]: ~100 ng/mL | binding result [11]: no binding (tested: 10 ug/ml)
B3: Ly1630 (antibody, V domains shown)
VH: QVQLVQSGAEVKKPGASVKVSCKASGYTFAGFEMHWVRQAPGQGLEWMGAIDPKTGGTDYNQKFKDRVTMTRDTSISTAYMELSRLRSDDTAVYYCARDLGYFDVWGQGTLVTVSS
VL: DIQMTQSPSSLSASVGDRVTITCRASQDIRSNLNWYQQKPGGAVKLLIYYTSRLHSGVPSRFSGSGSGTDYTLTISSLQPEDFATYFCQQSEKLPRTFGGGTKVEIR
notes: Humanized anti-CD137 antibody; also called parent anti-CD137 antibody clone Ly1630; CD137 parental antibody Ly1630

EC50 (read off the curve) [12]: ~0.08 µg/mL | EC50 (read off the curve) [8]: ~0.05 µg/mL
B4: Ly738 (bispecific antibody, human IgG1, kappa)
heavy: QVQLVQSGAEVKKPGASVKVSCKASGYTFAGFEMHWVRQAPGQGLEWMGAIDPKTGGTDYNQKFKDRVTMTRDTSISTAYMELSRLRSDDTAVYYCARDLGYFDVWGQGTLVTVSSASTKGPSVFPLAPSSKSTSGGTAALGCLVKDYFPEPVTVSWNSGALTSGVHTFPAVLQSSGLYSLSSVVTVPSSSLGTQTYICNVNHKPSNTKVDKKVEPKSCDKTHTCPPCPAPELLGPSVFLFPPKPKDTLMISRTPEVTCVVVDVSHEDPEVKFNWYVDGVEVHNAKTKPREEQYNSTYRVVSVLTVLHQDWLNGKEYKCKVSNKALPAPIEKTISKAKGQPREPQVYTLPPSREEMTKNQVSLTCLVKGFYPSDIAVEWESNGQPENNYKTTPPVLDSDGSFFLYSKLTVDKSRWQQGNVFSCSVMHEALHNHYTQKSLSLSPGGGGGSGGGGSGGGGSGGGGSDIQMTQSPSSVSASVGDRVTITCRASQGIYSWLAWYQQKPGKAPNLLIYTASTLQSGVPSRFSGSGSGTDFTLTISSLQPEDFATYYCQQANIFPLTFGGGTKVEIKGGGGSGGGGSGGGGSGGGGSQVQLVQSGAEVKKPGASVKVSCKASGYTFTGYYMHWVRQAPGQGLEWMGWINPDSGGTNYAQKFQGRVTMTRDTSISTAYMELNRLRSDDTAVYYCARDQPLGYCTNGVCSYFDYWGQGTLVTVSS
light: DIQMTQSPSSLSASVGDRVTITCRASQDIRSNLNWYQQKPGGAVKLLIYYTSRLHSGVPSRFSGSGSGTDYTLTISSLQPEDFATYFCQQSEKLPRTFGGGTKVEIRRTVAAPSVFIFPPSDEQLKSGTASVVCLLNNFYPREAKVQWKVDNALQSGNSQESVTEQDSKDSTYSLSSTLTLSKADYEKHKVYACEVTHQGLSSPVTKSFNRGEC
notes: Anti-CD40/CD137: Ly1630 heavy chain fused to Ly253 scFv (VL-VH); Ly1630 light chain

binding result [12]: binds | EC50 (read off the curve) [8]: ~0.05 µg/mL
B5: Ly739 (bispecific antibody, human IgG1, kappa)
heavy: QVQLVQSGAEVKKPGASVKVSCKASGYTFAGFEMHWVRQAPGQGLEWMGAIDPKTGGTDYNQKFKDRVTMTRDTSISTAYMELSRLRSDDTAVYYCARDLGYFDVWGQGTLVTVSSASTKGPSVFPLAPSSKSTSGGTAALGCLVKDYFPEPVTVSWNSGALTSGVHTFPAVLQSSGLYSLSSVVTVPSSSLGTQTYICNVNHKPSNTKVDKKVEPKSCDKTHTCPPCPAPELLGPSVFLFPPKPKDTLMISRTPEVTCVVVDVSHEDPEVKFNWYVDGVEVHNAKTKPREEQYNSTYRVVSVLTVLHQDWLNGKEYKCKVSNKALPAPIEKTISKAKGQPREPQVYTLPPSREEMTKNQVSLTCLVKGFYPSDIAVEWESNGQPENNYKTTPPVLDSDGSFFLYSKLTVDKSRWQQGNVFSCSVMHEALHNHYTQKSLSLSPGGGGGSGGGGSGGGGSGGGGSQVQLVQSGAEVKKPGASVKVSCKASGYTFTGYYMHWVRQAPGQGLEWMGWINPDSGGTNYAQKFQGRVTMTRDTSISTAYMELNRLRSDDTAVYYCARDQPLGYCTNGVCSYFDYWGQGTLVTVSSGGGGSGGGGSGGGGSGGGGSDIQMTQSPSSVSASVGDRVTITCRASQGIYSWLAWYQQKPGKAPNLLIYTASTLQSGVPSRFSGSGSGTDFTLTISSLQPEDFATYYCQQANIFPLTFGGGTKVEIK
light: DIQMTQSPSSLSASVGDRVTITCRASQDIRSNLNWYQQKPGGAVKLLIYYTSRLHSGVPSRFSGSGSGTDYTLTISSLQPEDFATYFCQQSEKLPRTFGGGTKVEIRRTVAAPSVFIFPPSDEQLKSGTASVVCLLNNFYPREAKVQWKVDNALQSGNSQESVTEQDSKDSTYSLSSTLTLSKADYEKHKVYACEVTHQGLSSPVTKSFNRGEC
notes: Anti-CD40/CD137: Ly1630 heavy chain fused to Ly253 scFv (VH-VL); Ly1630 light chain
